# In doi:10.1101/2020.12.31.424868 (bioRxiv, 2020):
# Residue numbers refer to the chain shown, from its start.
# B1: mAb 5J8 (antibody, V domains shown)
# VH: EVQLVESGPGLVKPSDILSLTCAVSGYSISSNYYWGWIRQPPGKGLEWIGSIYHSGSTYYKPSLESRLGISVDTSKNQFSLKLSFVSAADTAVYYCARHVRSGYPDTAYYFDKWGQGTLVTVSS
# VL: SYVLTQPPSVSVAPGETARISCGGNNIGTKVLHWYQQTPGQAPVLVVYDDSDRPSGIPERFSGSNSGNTATLTISRVEVGDEADYYCQVWDISTDQAVFGGGTKLTVL
# B2: FluA-20 (antibody, V domains shown)
# VH: QVQLEESGPGLVKPSETLSLTCSVSGVSVTSDIYYWTWIRQPPGKGLEWIGYIFYNGDTNYNPSLKSRVTMSIDTSKNEFSLRLTSVTAADTAVYFCARGTEDLGYCSSGSCPNHWGQGTLVTVSS
# VL: DIVMTQSPSSLSASIGDRVTITCRPSQNIRSFLNWFQHKPGKAPKLLIYAASNLQSGVPSRFSGSGSGTEFTLTIRSLQPEDFATYYCQQSYNTPPTFGQGTKVEIK
# B3: mAb H5.28, hybridoma-generated IgG (antibody, V domains shown)
# VH: EVQLVESGGGLVQPGGSLRLSCAASGFTFSTYWMTWVRQAPGKGLEWVANINQDGGEKYFVDSVKGRFTISRDNAKNSLFLQMNTLRAEDTAVYYCARGFLERLLLGRQGAYYYGMDVWGQGTTVTVSS
# VL: DIQMTQSPSSLSASVGDRVSMTCRASQIISSSLNWYQQKPGKAPKLLIYAASNLQSGVPSRFSGSGSGTDFTLTISSLQPEDFATYYCQQSYSTPPELTFGGGTKVEIK
# B4: mAb H5.31, hybridoma-generated IgG (antibody, V domains shown)
# VH: EVQLVQSGGGLVQPGGSLRLSCEASRFTSSSYWITWVRQAPGKGLEWVANIKQDGSEKYFVDSVKGRFTISRDNASNSLYLQMSSLRAEDTAVYYCARGFLERLLLGRQGAYYYGMDVWGQGTTVTVSS
# VL: B3 VL with Q3V, S9F, S20T, I28S, S93T, T94M
# B5: H5.28 Fab (recombinant) (Fab, V domains shown)
# VH: B3 VH
# VL: B3 VL
# B6: FluA-151 (antibody, V domains shown)
# VH: QELLVESGGGVVQPGRSLRLSCVGSGFTFRTYGMHWVRQAPGRRPEWVALISNDGSREYYADSVKGRFTISRDNSRNTLYLQMNSLTVADTAVYYCAKFIPDPNYGEFYFHHWGQGTLVTVSS
# VL: DIQMTQSPSSLSASVEDRVTITCRASQSINKYLNWYQQKPGKAPKLLIYAADNLQDAVPSRFSGSGSGTDFTLTITGLHPDDLATYYCQQSYTIPPTFGHGTKVEIK
# Experiments:
# [1] = molecular target: monomeric HA head domain from H1 A/California/07/2009 (influenza A virus A/California/07/2009 …, UniProt C3W5X2); test: BLI
# [2] = molecular target: trimeric recombinant HA from H1 A/California/04/2009 (Influenza A virus A/California/04/2009 …, UniProt C3W5S1); test: BLI
# [3] = molecular target: HA from A/New York/107/2003 (Influenza A virus A/New York/107/2003 …, UniProt B2LVD7, strain); test: ELISA
# IN/05 HA = IN/05 HA (Influenza A virus A/Indonesia/5/2005 …, UniProt C5MRF2, strain); test: ELISA
# [4] = molecular target: head domain of VN/04 HA (A/Vietnam/1203/2004 H5N1), monomeric (Influenza A virus A/Vietnam/1203/2004 …, strain); test: HDX-MS
Binder,binding result [3],binding result (IN/05 HA),other results
B1,–,–,binding result [1]: binds; binding result [2]: binds
B2,no binding,–,–
B3,–,binds,–
B4,–,binds,–
B5,–,–,binding result [4]: binds
B6,no binding,–,–
